This is an account of results in article PMC9032829.

“And” between values parts separate entries of the source, which are not always exact repeats. Equal values may be shown once.

In this assay the target is entire receptor binding domain (RBD) of SARS-CoV-2 Spike protein (SARS-CoV-2) (UniProt P0DTC2). The assay can be described thus: SPR. Background: SPR reads the build-up and loss of mass on a sensor chip optically.

“soluble αvβ3 integrin (from UniProt P06756;P05106) (complex)”: the Kd is 0.0063 µM and 0.0593 µM.

As a reminder, the Kd is the equilibrium constant for the complex coming apart. A higher Kd goes with a looser complex.
